Key:
LC3B [1] = target: LC3B (UniProt Q9GZQ8); assay: co-immunoprecipitation of Myc-AMBRA1, LC3 blot; conditions: reference: Myc-AMBRA1 wild type; sites S1014
GABARAP-L1 = GABARAP-L1 (UniProt Q9H0R8); assay: ITC, peptide titrated into GABARAP-L1; conditions: reference: unphosphorylated peptide P0; sites S1014
LC3B [2] = target: LC3B (UniProt Q9GZQ8); assay: NMR HSQC titration of 15N-LC3B; conditions: reference: unphosphorylated peptide P0; sites S1014
GABARAP-L2 = GABARAP-L2 (UniProt P60520); assay: ITC, peptide titrated into GABARAP-L2; conditions: reference: unphosphorylated peptide P0; sites S1014
Chain of GABARAP-L2 (P60520 whole entry, looked up): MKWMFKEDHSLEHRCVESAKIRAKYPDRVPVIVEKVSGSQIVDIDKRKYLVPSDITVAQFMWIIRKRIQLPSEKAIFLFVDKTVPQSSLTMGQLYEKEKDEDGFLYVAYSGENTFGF

LC3A = LC3A (UniProt Q9H492); assay: ITC, peptide titrated into LC3A; conditions: reference: unphosphorylated peptide P0; sites S1014
LC3C = LC3C (UniProt Q9BXW4); assay: ITC, peptide titrated into LC3C; conditions: reference: unphosphorylated peptide P0; sites S1014
Chain of LC3C (Q9BXW4 whole entry, looked up): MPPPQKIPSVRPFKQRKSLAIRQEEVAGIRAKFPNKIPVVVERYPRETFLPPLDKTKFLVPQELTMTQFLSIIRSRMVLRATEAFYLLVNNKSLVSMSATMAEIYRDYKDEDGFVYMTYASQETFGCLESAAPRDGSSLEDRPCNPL

Chain of GABARAP-L1 (Q9H0R8 whole entry, looked up): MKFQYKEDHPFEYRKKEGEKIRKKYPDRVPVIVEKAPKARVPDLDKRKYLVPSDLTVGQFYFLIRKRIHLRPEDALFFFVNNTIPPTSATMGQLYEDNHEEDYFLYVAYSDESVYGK

binding against the reference (LC3B [1]) | binding against the reference (GABARAP-L1) | binding against the reference (LC3B [2]) | binding against the reference (GABARAP-L2) | binding against the reference (LC3A) | binding against the reference (LC3C) | Substance
weaker |  |  |  |  |  | AMBRA1 (from UniProt Q9C0C7-3) S1014A
 | stronger | stronger | stronger | stronger | stronger | AMBRA1 AMBRA1-LIR (from UniProt Q9C0C7-3) pS1014 peptide P1

— article PMC6138665
